Data taken from patent US20190248888A1, “METHODS OF LOWERING BLOOD GLUCOSE LEVELS” (Regeneron Pharmaceuticals, Inc., priority 2016, published 2019).

System: Slc38a5−/− mice
Assay: GCGR antibody in Slc38a5−/− mice and wildtype littermates
Type: in vivo, mouse
Conditions: 10 mg/kg weekly, 20 days
Protocol: Mice deficient in Slc38a5 (100% C57BL/6NTac) were generated by homologous recombination using Regeneron's VelociGene technology (Valenzuela et al., 2003, Nat Biotechnol 21:652-659). VelociGene allele identification number is VG15016. Both male and female mice were used for the study. […] Slc38a5^−/− mice and wildtype littermates were dosed with GCGR or control antibody (10 mg/kg; n=8) weekly for 20 days. Samples of blood and plasma as well as organ weights and pancreata were collected as outlined above.

B1: α-GCGR: potent monoclonal GCGR blocking antibody, HCVR/LCVR SEQ ID NOs: 86/88 (antibody, V domains shown)
VH: EVQLVESGGGLVQPGGSLRLSCAASGFTFSNYLMNWVRQAPGKGLEWLANIQEDGIEKYYVDSVKGRFTISRDNAKNSLYLQMNSLRAEDTAVYYCAREPSHYDILTGYDYYYGMDVWGQGTTVTVS
VL: DIQMTQSPSSLSASVGDRVTITCRASQGIRNDLGWYQQKPGKAPKRLIYAASSLQSGVPSRFSGSGSGTEFILTVSSLQPEDFATYYCLQYNSNPFTFGPGTKVDIK
- blood glucose levels in Slc38a5−/− mice compared with littermate control mice: to the same extent
- reduction of the expansion of α-cell mass in Slc38a5−/− mice relative to treated control mice: 50%
- plasma insulin levels (WT and Slc38a5−/− mice): No effects
- α-cell mass or number of islets per pancreas area (FIGS. 5H and 5I) (WT and Slc38a5−/− mice): did not affect
